Measurements as given in publication PMC5821459.

Target: L1 ORF2p-3xFLAG (ORFeus-Hs, pLD401, WT) (human) (UniProt O00370)
Experiment: affinity purification with mass spectrometry; On-bead RNase-sensitivity assay: ORF2p-3xFLAG (pLD401) captured on α-FLAG magnetic medium from HEK-293T_LD extract in 20 mM HEPES-Na pH 7.4, 500 mM NaCl, 1% Triton X-100; medium treated with RNases A and T1 or with BSA, 30 min RT; retained material eluted with LDS; label-swapped SILAC

UniProt O00370, sequence (O00370 whole entry): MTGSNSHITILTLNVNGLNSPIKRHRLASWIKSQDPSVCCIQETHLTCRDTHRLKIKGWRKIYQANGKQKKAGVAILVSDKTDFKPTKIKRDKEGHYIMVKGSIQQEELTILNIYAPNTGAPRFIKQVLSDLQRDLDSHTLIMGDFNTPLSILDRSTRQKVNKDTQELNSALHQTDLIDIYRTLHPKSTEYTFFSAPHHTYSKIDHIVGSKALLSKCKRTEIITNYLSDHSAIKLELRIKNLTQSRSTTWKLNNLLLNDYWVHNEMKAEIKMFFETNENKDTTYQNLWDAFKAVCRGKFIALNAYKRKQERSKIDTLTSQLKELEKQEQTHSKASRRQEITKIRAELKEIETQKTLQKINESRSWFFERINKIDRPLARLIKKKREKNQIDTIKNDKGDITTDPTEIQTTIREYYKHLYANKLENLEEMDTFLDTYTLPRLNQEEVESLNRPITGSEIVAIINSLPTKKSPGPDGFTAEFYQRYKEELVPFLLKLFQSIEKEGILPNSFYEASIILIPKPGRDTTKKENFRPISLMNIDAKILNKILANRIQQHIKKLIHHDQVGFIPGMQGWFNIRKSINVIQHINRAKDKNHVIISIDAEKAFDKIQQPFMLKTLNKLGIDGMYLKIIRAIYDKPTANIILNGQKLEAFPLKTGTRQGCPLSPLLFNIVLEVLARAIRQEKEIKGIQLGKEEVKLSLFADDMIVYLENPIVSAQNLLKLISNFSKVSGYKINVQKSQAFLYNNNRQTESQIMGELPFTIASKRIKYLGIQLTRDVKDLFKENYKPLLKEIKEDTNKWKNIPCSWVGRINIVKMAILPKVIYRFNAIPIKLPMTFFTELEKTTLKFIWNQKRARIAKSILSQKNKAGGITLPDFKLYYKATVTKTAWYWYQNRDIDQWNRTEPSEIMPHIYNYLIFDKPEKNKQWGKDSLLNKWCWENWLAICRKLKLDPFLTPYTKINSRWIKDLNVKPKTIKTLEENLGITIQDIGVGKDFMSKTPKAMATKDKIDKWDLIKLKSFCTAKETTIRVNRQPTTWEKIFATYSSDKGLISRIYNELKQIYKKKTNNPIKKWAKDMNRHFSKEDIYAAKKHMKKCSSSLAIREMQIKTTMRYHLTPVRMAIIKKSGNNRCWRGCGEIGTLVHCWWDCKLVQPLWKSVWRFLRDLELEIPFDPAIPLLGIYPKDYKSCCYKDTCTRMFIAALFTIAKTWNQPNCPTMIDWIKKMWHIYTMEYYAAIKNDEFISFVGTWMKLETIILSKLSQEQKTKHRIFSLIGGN

RNase sensitivity relative to that of MOV10: 62%
Substance: Regulator of nonsense transcripts 1 (from UniProt Q92900 1-1129) (natural protein)
